From patent publication US20140057332A1, “GLUCO-OLIGOSACCHARIDE OXIDASES FROM ACREMONIUM STRICTUM AND USES THEREOF” (The Governing Council of the University of Toronto, priority 2011, published 2014)
Where a chain is given by its changes, count along the chain named. Names may count otherwise.

B1: Acremonium strictum gluco-oligosaccharide oxidase GOOX-VN variant 1 Y300A, SEQ ID NO. 6 (Sarocladium strictum; A38V/S388N/Y300A) (protein)
chain: NSINACLAAADVEFHEEDSEGWEMDGTAFNLRVDYDPVAIAIPRSTEDIAAAVQCGLDAGVQISAKGGGHSYGSYGFGGEDGHLMLELDRMYRVSVDDDNVATIQGGARLGYTALELLDQGNRALTHGTCPAVGIGGHVLGGGYGFATHTHGLTLDWLVGATVVLADASIVHVSKTENADLFWALRGGGGGFAIVSEFEFNTFEAPEIITTYQVTTTWNRKQHVAGLKALQDWAENTMPRELSMRLEINANALNWEGNYFGNAKDLKKVLQPIMKKAGGKSTISKLVETDWYGQINTYLAGADLNITYNYDVHEYFYANSLTAPRLSDEAISAFVDYKFDNSSVRPGRGWWIQWDFHGGKNSALASHSNDETAYAHRDQLWLWQFYDNIYDYENNTSPYPESGFEFMQGFVATIEDTLPEDRKGKYFNYADTTLDKEEAQKLYWRGNLEKLQAIKAKYDPEDVFGNVVSVEPIA
B2: Acremonium strictum gluco-oligosaccharide oxidase GOOX-VN variant 2 Y300N, SEQ ID NO. 7 (Sarocladium strictum; A38V/S388N/Y300N) (protein)
chain: B1 chain with A300N

Key:
[1] = Chromogenic H2O2 oxidase assay / kinetic analysis on xylobiose; details: for Specific activity Defined substrate concentration: 1 mM xylobiose, 37° C., 15 min; for Specific activity From Vmax: substrate xylobiose
Protocol: (§1) A chromogenic assay was used to measure hydrogen peroxide production (15). Reactions contained 0.1 mM 4aminoantipyrine (4AA), 1 mM phenol, 0.5 U horseradish peroxidase, 40 mM Tris-HCl (pH 8.0), and different substrates were initiated by adding 0.2 μg of enzymes to the 250 μL reaction mixture. The production of H2O2 was coupled to the oxidation of 4aminoantipyrine by horseradish peroxidase and detected at 500 nm. Reactions were incubated at 37° C. for 15 min to measure the specific activity of GOOX on 10 mM of monosaccharide or 1 mM of oligosaccharide.
(§2) At least 12 substrate concentrations were included to obtain kinetic parameters for each substrate. Initial rates were obtained by measuring reaction products every 30 s for 15 min at 37° C. and pH 8.0, and kinetic parameters were calculated using the Michaelis-Menten equation (GraphPad Prism5 Software).

[2] = Chromogenic H2O2 oxidase assay / kinetic analysis on xylotriose; details: for Specific activity Defined substrate concentration: 1 mM xylotriose, 37° C., 15 min; for Specific activity From Vmax: substrate xylotriose
Protocol: as §1, §2

[3] = Chromogenic H2O2 oxidase assay / kinetic analysis on galactose; details: for Specific activity Defined substrate concentration: 10 mM galactose, 37° C., 15 min; for Specific activity From Vmax: substrate galactose
Protocol: as §1, §2

[4] = Kinetic analyses, all tested substrates; assay type: biochemical; details: all tested monosaccharides and oligosaccharides
Protocol: as §1, §2

[5] = Chromogenic H2O2 oxidase assay / kinetic analysis on cellobiose; details: for Specific activity Defined substrate concentration: 1 mM cellobiose, 37° C., 15 min; for Specific activity From Vmax: substrate cellobiose
Protocol: as §1, §2

[6] = Chromogenic H2O2 oxidase assay on mannose; details: for Specific activity Defined substrate concentration: 10 mM mannose, 37° C., 15 min
Protocol: as §1
An additional eight mutations, identified as Y72F, Y72A, E247A, E314A, W351A, N388S, Q353N, Q384A, were created in GOOX-VN to assess the influence of these residues on the substrate selectivity of GOOX-VN. […] The specific activity of each mutant was then measured at 37° C. for 15 min using 10 mM mono-sugars and 1 mM oligosaccharides as performed for Y300A, Y300N, and W351F (Table 11).

[7] = Effect of deglycosylation with PNGaseF on enzyme activity; assay type: biochemical; details: 10 mM maltose, 15 min at 37° C., duplicate; for Activity, Deglycosylated: deglycosylated with PNGaseF (native conditions); for Activity, Glycosylated: glycosylated enzyme
Protocol: Approximately 2 μg of purified enzyme was treated with PNGaseF (New England Biolabs) using denaturing and native conditions. Samples that were deglycosylated using denaturing conditions were analysed by SDS PAGE, while samples deglycosylated using native conditions were used to evaluate the impact of glycosylation on enzyme activity. The activity of enzymes was measured on 10 mM maltose at 37° C. for 15 min. (Table 7). N-glycosylation was predicted by NetNGlyc (http://www.cbs.dtu.dk/services/NetNGlyc/) while O-glycosylation was predicted by OGPET (http://ogpet.utep.edu/OGPET/).

[8] = Chromogenic H2O2 oxidase assay / kinetic analysis on glucose; details: for Specific activity Defined substrate concentration: 10 mM glucose, 37° C., 15 min; for Specific activity From Vmax: substrate glucose
Protocol: as §1, §2

[9] = substrate: OC[C@H]1OC(O)[C@H](O)[C@@H](O)[C@@H]1O; test: purified protein, by the assay type; details: other: 37° C., pH 8.0
Protocol: as §1, §2

[10] = substrate: OC[C@H]1O[C@@H](O[C@H]2[C@H](O)[C@@H](O)C(O)O[C@@H]2CO)[C@H](O)[C@@H](O)[C@@H]1O; test: purified protein, by the assay type; details: other: 37° C., pH 8.0
Protocol: as §1, §2

[11] = substrate: OC[C@H]1O[C@H](O[C@H]2[C@H](O)[C@@H](O)C(O)O[C@@H]2CO)[C@H](O)[C@@H](O)[C@@H]1O; test: purified protein, by the assay type; details: other: 37° C., pH 8.0
Protocol: as §1, §2

[12] = substrate: OC1OC[C@@H](O)[C@H](O)[C@H]1O; test: purified protein, by the assay type; details: other: 37° C., pH 8.0
Protocol: as §1, §2

[13] = substrate: OC[C@H]1OC(O)[C@H](O)[C@@H](O)[C@H]1O; test: purified protein, by the assay type; details: other: 37° C., pH 8.0
Protocol: as §1, §2

[14] = substrate: CC(=O)N[C@H]1C(O)O[C@H](CO)[C@@H](O)[C@@H]1O; test: purified protein, by the assay type; details: other: 37° C., pH 8.0
Protocol: as §1, §2

[15] = substrate: OC1OC[C@@H](O[C@@H]2OC[C@@H](O)[C@H](O)[C@H]2O)[C@H](O)[C@H]1O; test: purified protein, by the assay type; details: other: 37° C., pH 8.0
Protocol: as §1, §2

[16] = substrate: OC1OC[C@@H](O[C@@H]2OC[C@@H](O[C@@H]3OC[C@@H](O)[C@H](O)[C@H]3O)[C@H](O)[C@H]2O)[C@H](O)[C@H]1O; test: purified protein, by the assay type; details: other: 37° C., pH 8.0
Protocol: as §1, §2

[17] = substrate: OC[C@H]1O[C@@H](O[C@H]2[C@H](O)[C@@H](O)[C@H](O[C@H]3[C@H](O)[C@@H](O)C(O)O[C@@H]3CO)O[C@@H]2CO)[C@H](O)[C@@H](O)[C@@H]1O; test: purified protein, by the assay type; details: other: 37° C., pH 8.0
Protocol: as §1, §2

[18] = Chromogenic H2O2 oxidase assay / kinetic analysis on maltose; details: for Specific activity Defined substrate concentration: 1 mM maltose, 37° C., 15 min; for Specific activity From Vmax: substrate maltose
Protocol: as §1, §2

[19] = Chromogenic H2O2 oxidase assay / kinetic analysis on xylose; details: for Specific activity Defined substrate concentration: 10 mM xylose, 37° C., 15 min; for Specific activity From Vmax: substrate xylose
Protocol: as §1, §2

[20] = Chromogenic H2O2 oxidase assay / kinetic analysis on cellotriose; details: for Specific activity Defined substrate concentration: 1 mM cellotriose, 37° C., 15 min; for Specific activity From Vmax: substrate cellotriose
[21] = Chromogenic H2O2 oxidase assay / kinetic analysis on NAG; details: for Specific activity Defined substrate concentration: 10 mM NAG, 37° C., 15 min; for Specific activity From Vmax: substrate NAG
Protocol: as §1, §2

| Molecule | Specific activity Defined substrate concentration [1] | Specific activity From Vmax [1] | Specific activity Defined substrate concentration [2] | Specific activity From Vmax [2] | Specific activity Defined substrate concentration [3] | Specific activity From Vmax [3] | catalytic activity (kcat) relative to GOOX-VN [4] | Specific activity Defined substrate concentration [5] | Specific activity From Vmax [5] | activity on mannose (in words) [6] | Specific activity Defined substrate concentration [6] | Activity, Deglycosylated [7] | Activity, Glycosylated [7] | Specific activity Defined substrate concentration [8] | Specific activity From Vmax [8] | Km [9] | Km [10] | Km [11] | kcat [11] | kcat/Km [11] | other results |
| --- | --- | --- | --- | --- | --- | --- | --- | --- | --- | --- | --- | --- | --- | --- | --- | --- | --- | --- | --- | --- | --- |
| B1 | 2.10 µmol/mg/min | 13.16 µmol/mg/min | 3.22 µmol/mg/min | 13.73 µmol/mg/min | 1.15 µmol/mg/min | 13.17 µmol/mg/min | approximately two times higher | 10.72 µmol/mg/min | 13.58 µmol/mg/min | low activity | 0.11 µmol/mg/min | 3.9 nmol/min | 4.09 nmol/min | 7.15 µmol/mg/min | 13.09 µmol/mg/min | 8.11 ± 0.40 mM | 0.24 ± 0.02 mM | 11.00 ± 0.53 mM | 10.4 ± 0.123 s⁻¹ | 947 ± 46.7 M⁻¹ s⁻¹ | Km [12]: 51.84 ± 1.90 mM; Km [13]: 96.39 ± 5.15 mM; Km [14]: 92.4 ± 4.65 mM; kcat [14]: 12.8 ± 0.223 s⁻¹; kcat/Km [14]: 138 ± 6.67 M⁻¹ s⁻¹; Km [15]: 5.11 ± 0.15 mM; Km [16]: 3.15 ± 0.11 mM; Km [17]: 0.25 ± 0.02 mM; Specific activity Defined substrate concentration [18]: 0.85 µmol/mg/min; Specific activity From Vmax [18]: 10.31 µmol/mg/min; Specific activity Defined substrate concentration [19]: 1.57 µmol/mg/min; Specific activity From Vmax [19]: 11.22 µmol/mg/min; Specific activity Defined substrate concentration [20]: 9.03 µmol/mg/min; Specific activity From Vmax [20]: 11.00 µmol/mg/min; Specific activity Defined substrate concentration [21]: 1.1 µmol/mg/min; Specific activity From Vmax [21]: 12.67 µmol/mg/min |
| B2 | 1.83 µmol/mg/min | 11.84 µmol/mg/min | 2.00 µmol/mg/min | 11.85 µmol/mg/min | 0.95 µmol/mg/min | 11.64 µmol/mg/min | approximately two times higher | 8.15 µmol/mg/min | 11.29 µmol/mg/min | low activity | 0.19 µmol/mg/min | 2.78 nmol/min | 2.6 nmol/min | 8.32 µmol/mg/min | 10.70 µmol/mg/min | 3.11 ± 0.12 mM | 0.38 ± 0.02 mM | 19.61 ± 0.66 mM | 10.4 ± 0.105 s⁻¹ | 530 ± 18.3 M⁻¹ s⁻¹ | Km [12]: 32.01 ± 1.67 mM; Km [14]: 55.95 ± 1.93 mM; Km [15]: 4.83 ± 0.17 mM; Km [16]: 4.32 ± 0.25 mM; Km [17]: 0.44 ± 0.01 mM; Specific activity Defined substrate concentration [18]: 0.49 µmol/mg/min; Specific activity From Vmax [18]: 10.30 µmol/mg/min; Specific activity Defined substrate concentration [19]: 2.32 µmol/mg/min; Specific activity From Vmax [19]: 11.48 µmol/mg/min; Specific activity Defined substrate concentration [20]: 6.90 µmol/mg/min; Specific activity From Vmax [20]: 9.88 µmol/mg/min; Specific activity Defined substrate concentration [21]: 1.5 µmol/mg/min; Specific activity From Vmax [21]: 11.22 µmol/mg/min |
